Results published in paper PMC3423971 (Structure (London, England : 1993), 2012).
Where a chain is given by its changes, count along the chain named. Names and notes keep the numbering of the source. Values belong to the binder of their own block, whether it stands above or below them.

Tests used:
ubiquitin-AMC = ubiquitin-AMC (UniProt P0CG48 1-76, AMC (ubiquitin-AMC)); experiment: cell-based or functional assay
AUC [1] = target: the molecule itself; experiment: AUC
AUC [2] = target: the molecule itself; experiment: AUC; remark: listed apart in the source
crystal structure = target: the molecule itself; experiment: crystal structure

B1: wild-type SAGA deubiquitinating module (DUBm): Ubp8, Sgf11, Sus1, Sgf73(1-96) (complex, yeast)
chain 1: MSICPHIQQVFQNEKSKDGVLKTCNAARYILNHSVPKEKFLNTMKCGTCHEINSGATFMCLQCGFCGCWNHSHFLSHSKQIGHIFGINSNNGLLFCFKCEDYIGNIDLINDAILAKYWDDVCTKTMVPSMERRDGLSGLINMGSTCFMSSILQCLIHNPYFIRHSMSQIHSNNCKVRSPDKCFSCALDKIVHELYGALNTKQASSSSTSTNRQTGFIYLLTCAWKINQNLAGYSQQDAHEFWQFIINQIHQSYVLDLPNAKEVSRANNKQCECIVHTVFEGSLESSIVCPGCQNNSKTTIDPFLDLSLDIKDKKKLYECLDSFHKKEQLKDFNYHCGECNSTQDAIKQLGIHKLPSVLVLQLKRFEHLLNGSNRKLDDFIEFPTYLNMKNYCSTKEKDKHSENGKVPDIIYELIGIVSHKGTVNEGHYIAFCKISGGQWFKFNDSMVSSISQEEVLKEQAYLLFYTIRQVN
chain 2: MTEETITIDSISNGILNNLLTTLIQDIVARETTQQQLLKTRYPDLRSYYFDPNGSLDINGLQKQQESSQYIHCENCGRDVSANRLAAHLQRCLSRGARR
chain 3: MTMDTAQLKSQIQQYLVESGNYELISNELKARLLQEGWVDKVKDLTKSEMNINESTNFTQILSTVEPKALEMVSDSTRETVLKQIREFLEEIVDTQ
chain 4: MRSGDAEIKGIKPKVIEEYSLSQGSGPSNDSWKSLMSSAKDTPLQYDHMNRESLKKYFNPNAQLIEDPLDKPIQYRVCEKCGKPLALTAIVDHLEN
KM of Ub-AMC cleavage (steady-state kinetics, 30°C) (ubiquitin-AMC): 24 µM

B5: DUBm-ΔSgf11-ZnF-Ubp8^S149N: Ubp8 S149N, Sgf11(1-72), Sus1, Sgf73(1-96) (complex, yeast)
chain 1: B1 chain 1 with S149N
chain 2: MTEETITIDSISNGILNNLLTTLIQDIVARETTQQQLLKTRYPDLRSYYFDPNGSLDINGLQKQQESSQYIH
chain 3: B1 chain 3
chain 4: B1 chain 4
KM of Ub-AMC cleavage (steady-state kinetics, 30°C) (ubiquitin-AMC): 11 µM

B6: Ubp8 (wild type) (enzyme, yeast)
chain: B1 chain 1
binding result (crystal structure): binds

B7: Ubp8 S144N (enzyme, yeast)
chain: B1 chain 1 with S144N
binding result (crystal structure): binds

Now from value to binder, other results behind:

KM of Ub-AMC cleavage (steady-state kinetics, 30°C) (ubiquitin-AMC): 13 µM
B2: DUBm-ΔSgf11-ZnF-Ubp8^S144N/S149N: Ubp8 S144N S149N, Sgf11(1-72), Sus1, Sgf73(1-96) (complex, yeast)
chain 1: B1 chain 1 with S144N, S149N
chain 2: B5 chain 2
chain 3: B1 chain 3
chain 4: B1 chain 4

KM of Ub-AMC cleavage (steady-state kinetics, 30°C) (ubiquitin-AMC): 17 µM
B3: DUBm-ΔSgf11-ZnF-Ubp8^S144N: Ubp8 S144N, Sgf11(1-72), Sus1, Sgf73(1-96) (complex, yeast)
chain 1: B1 chain 1 with S144N
chain 2: B5 chain 2
chain 3: B1 chain 3
chain 4: B1 chain 4
Kd (AUC [1]): 28 µM
stoichiometry N (AUC [2]): 2

KM of Ub-AMC cleavage (steady-state kinetics, 30°C) (ubiquitin-AMC): 19 µM
B4: DUBm-ΔSgf11-ZnF-Ubp8^WT: Ubp8, Sgf11(1-72), Sus1, Sgf73(1-96) (complex, yeast)
chain 1: B1 chain 1
chain 2: B5 chain 2
chain 3: B1 chain 3
chain 4: B1 chain 4
Kd (AUC [1]): ~17 µM
stoichiometry N (AUC [2]): 2
